Measured values taken from PMC4533223, “Structures of CD6 and Its Ligand CD166 Give Insight into Their Interaction” (Structure(London, England:1993), 2015).
Where two headings read alike, the source gives them in different places. Values belong to the binder of their own block, whether it stands above or below them.

Legend:
[1] = target: T1, human CD6 domains 1-3 plus stalk fused to rat CD4 domains 3 and 4 (CD6 d1-3S, wild type, S351) (human, UniProt P30203 18-402, biotin on the tag (immobilisation to streptavidin, Figure S1)); assay: SPR; BIAcore 3000; CD6-CD4d3+4 chimeras (d1-3S, d2-3S, d3S) immobilised via the biotin tag to streptavidin, rat CD4 d3+4 in the control flow cell; soluble CD166 VVC injected, top 1.0 μM plus nine two-fold dilutions; 37 °C, HBS-EP, 20 μl/min; equilibrium binding, Langmuir 1:1 fit; conditions: one partner purified
T1 construct: also called CD6-CD4d3+4; CD6 WT; not shown: rat CD4 domains 3 and 4 (CD4d3+4), C-terminal, kept
T1 sequence (looked up): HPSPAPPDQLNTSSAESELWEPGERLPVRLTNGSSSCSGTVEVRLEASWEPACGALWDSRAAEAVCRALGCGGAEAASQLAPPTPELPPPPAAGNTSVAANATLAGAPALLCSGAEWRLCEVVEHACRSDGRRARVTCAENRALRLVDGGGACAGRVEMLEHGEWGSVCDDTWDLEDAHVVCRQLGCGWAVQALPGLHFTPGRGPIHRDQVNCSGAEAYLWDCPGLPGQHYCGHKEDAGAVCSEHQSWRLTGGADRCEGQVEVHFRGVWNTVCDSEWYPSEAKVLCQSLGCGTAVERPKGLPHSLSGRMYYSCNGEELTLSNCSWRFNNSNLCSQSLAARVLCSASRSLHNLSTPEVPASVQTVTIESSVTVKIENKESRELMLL

[2] = target: the molecule itself; assay: SEC-MALS; Superdex200 10/30 in 50 mM Tris.HCl, pH 7.5, 150 mM NaCl, 0.4 ml/min; CD6 alone 39 µM, CD166 VVC alone 28 µM, equimolar mixture 27 µM each; samples diluted approximately 10-fold on the column
[3] = target: human CD6 domains 2-3 plus stalk fused to rat CD4 domains 3 and 4 (CD6 d2-3S) (human) (UniProt P30203); assay: SPR; BIAcore 3000; CD6-CD4d3+4 chimeras (d1-3S, d2-3S, d3S) immobilised via the biotin tag to streptavidin, rat CD4 d3+4 in the control flow cell; soluble CD166 VVC injected, top 1.0 μM plus nine two-fold dilutions; 37 °C, HBS-EP, 20 μl/min; equilibrium binding, Langmuir 1:1 fit
[4] = target: human CD6 domain 3 plus stalk fused to rat CD4 domains 3 and 4 (CD6 d3S) (human) (UniProt P30203); assay: as above
[5] = target: T1, human CD6 domains 1-3 plus stalk fused …; assay: SPR; BIAcore 3000; CD6 S351, S351A and S351N (CD4d3+4 chimeras) immobilised via OX68 mAb, rat CD4 d3+4 in the control flow cell; soluble CD166 VVC injected, top 2.5 μM plus nine two-fold dilutions; 25 °C, HBS-EP, 20 μl/min; KD from equilibrium binding (Langmuir 1:1), koff from one phase exponential decay; conditions: one partner purified
[6] = target: T2, human CD6-CD4d3+4 chimera, mutant S351A (human, UniProt P30203 18-402, S351A); assay: as above; conditions: one partner purified
T2 construct: human CD6 extracellular region with the membrane proximal stalk, as Dm2; also called CD6 S351A; source: mutant made with a Q5 SDM kit; not shown: rat CD4 domains 3 and 4 (CD4d3+4), C-terminal, kept
T2 sequence (looked up): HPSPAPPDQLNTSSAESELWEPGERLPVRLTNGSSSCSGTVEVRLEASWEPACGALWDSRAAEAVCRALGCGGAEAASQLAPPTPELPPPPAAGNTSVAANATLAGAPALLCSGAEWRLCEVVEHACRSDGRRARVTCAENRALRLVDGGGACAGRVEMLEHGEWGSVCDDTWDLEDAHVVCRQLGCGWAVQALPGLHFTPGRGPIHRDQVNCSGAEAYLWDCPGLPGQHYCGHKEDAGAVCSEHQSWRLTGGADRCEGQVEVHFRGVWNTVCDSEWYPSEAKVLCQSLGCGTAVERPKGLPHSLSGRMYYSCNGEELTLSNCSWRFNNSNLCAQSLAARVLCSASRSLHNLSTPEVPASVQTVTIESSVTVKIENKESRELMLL

[7] = target: T3, human CD6-CD4d3+4 chimera, SNP variant S351N (human, UniProt P30203 18-402, S351N, N-linked glycosylation at N351 (shown by mass spectrometry)); assay: as above; conditions: one partner purified
T3 construct: human CD6 extracellular region with the membrane proximal stalk, as Dm2; S351N is a SNP found in 10% of the genomes analyzed; The 293T cells and the purification with OX68-Sepharose are told for the sample used in the glycosylation mass spectrometry; also called CD6 S351N; CD6-CD4d3+4 S351N; source: transiently expressed in 293T cells; not shown: rat CD4 domains 3 and 4 (CD4d3+4), C-terminal, kept
T3 sequence (looked up): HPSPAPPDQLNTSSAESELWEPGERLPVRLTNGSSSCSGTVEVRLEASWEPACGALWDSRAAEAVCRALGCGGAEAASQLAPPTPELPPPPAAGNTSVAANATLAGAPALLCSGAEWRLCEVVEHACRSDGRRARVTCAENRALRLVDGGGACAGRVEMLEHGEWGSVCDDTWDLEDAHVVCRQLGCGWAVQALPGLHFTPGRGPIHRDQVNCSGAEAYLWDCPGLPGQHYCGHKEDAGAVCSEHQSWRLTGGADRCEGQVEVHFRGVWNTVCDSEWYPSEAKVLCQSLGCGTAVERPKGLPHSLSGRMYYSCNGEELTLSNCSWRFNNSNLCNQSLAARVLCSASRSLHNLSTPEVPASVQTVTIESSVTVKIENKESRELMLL

[8] = target: T1, human CD6 domains 1-3 plus stalk fused …; assay: SPR; BIAcore 3000; CD6-CD4d3+4 chimeras (d1-3S, d2-3S, d3S) immobilised via the biotin tag to streptavidin, rat CD4 d3+4 in the control flow cell; soluble CD166 VVC injected, top 1.0 μM plus nine two-fold dilutions; 37 °C, HBS-EP, 20 μl/min; equilibrium binding, Langmuir 1:1 fit; conditions: one partner purified; remark: listed apart in the source
[9] = target: T1, human CD6 domains 1-3 plus stalk fused …; assay: SPR; BIAcore 3000; CD6 S351, S351A and S351N (CD4d3+4 chimeras) immobilised via OX68 mAb, rat CD4 d3+4 in the control flow cell; soluble CD166 VVC injected, top 2.5 μM plus nine two-fold dilutions; 25 °C, HBS-EP, 20 μl/min; KD from equilibrium binding (Langmuir 1:1), koff from one phase exponential decay; conditions: one partner purified; remark: listed apart in the source
[10] = target: T2, human CD6-CD4d3+4 chimera, mutant S351A; assay: as above; conditions: one partner purified; remark: listed apart in the source
[11] = target: T3, human CD6-CD4d3+4 chimera, SNP variant …; assay: as above; conditions: one partner purified; remark: listed apart in the source
[12] = target: human CD6 domains 2-3 plus stalk fused to rat CD4 domains 3 and 4 (CD6 d2-3S) (human) (UniProt P30203); assay: SPR; BIAcore 3000; CD6-CD4d3+4 chimeras (d1-3S, d2-3S, d3S) immobilised via the biotin tag to streptavidin, rat CD4 d3+4 in the control flow cell; soluble CD166 VVC injected, top 1.0 μM plus nine two-fold dilutions; 37 °C, HBS-EP, 20 μl/min; equilibrium binding, Langmuir 1:1 fit; remark: listed apart in the source
[13] = target: human CD6 domain 3 plus stalk fused to rat CD4 domains 3 and 4 (CD6 d3S) (human) (UniProt P30203); assay: as above; remark: listed apart in the source
[14] = target: T4, human CD6 S351N (SNP variant) (human, UniProt P30203 18-668, S351N, N-linked glycan at N351; N28, N49, N229 glycosylated, N339 appears partially glycosylated); assay: SPR; soluble CD166 VVC over streptavidin-immobilized chimeric CD6 forms and variants; conditions: both partners purified
T4 construct: human CD6 with the SNP S351N, found in 10% of the genomes analyzed; made by mutagenesis; Probably the same chimeric, streptavidin-immobilized format as m3 (surmised); construct in the supplement
T4 sequence (looked up): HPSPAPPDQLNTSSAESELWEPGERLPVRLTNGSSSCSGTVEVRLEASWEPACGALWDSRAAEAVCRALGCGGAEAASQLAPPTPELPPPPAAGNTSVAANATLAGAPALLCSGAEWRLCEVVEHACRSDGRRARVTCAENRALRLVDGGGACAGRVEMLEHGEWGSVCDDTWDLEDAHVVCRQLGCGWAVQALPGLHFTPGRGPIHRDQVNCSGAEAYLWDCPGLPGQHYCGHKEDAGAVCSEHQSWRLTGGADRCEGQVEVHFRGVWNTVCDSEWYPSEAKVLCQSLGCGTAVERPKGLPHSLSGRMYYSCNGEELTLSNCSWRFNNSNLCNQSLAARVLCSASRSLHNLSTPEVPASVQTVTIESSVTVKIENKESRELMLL

[15] = target: the molecule itself; assay: native MS; each protein alone at 20 μM; buffer exchanged into 250 mM ammonium acetate pH 7.6; dimer to monomers

Kd [1]: 77 nM
Kd [3]: 81 nM
Kd [4]: 86 nM
Kd [5]: 120 nM
koff [5]: 0.072 s⁻¹
Kd [6]: 83 nM
koff [6]: 0.049 s⁻¹
Kd [7]: 599 nM
koff [7]: 0.337 s⁻¹
Kd [8]: 90 nM
Kd [9]: 90 nM
koff [9]: 0.07 s⁻¹
Kd [10]: 60 nM
koff [10]: 0.05 s⁻¹
Kd [11]: 500 nM
koff [11]: 0.4 s⁻¹
Kd [12]: 90 nM
Kd [13]: 100 nM
B1: soluble recombinant human CD166 VVC (IgSF domains 1-3, two V-like domains and one C-like domain), His-tagged (domain or fragment, UniProt Q13740 28-335, looked up)
chain: WYTVNSAYGDTIIIPCRLDVPQNLMFGKWKYEKPDGSPVFIAFRSSTKKSVQYDDVPEYKDRLNLSENYTLSISNARISDEKRFVCMLVTEDNVFEAPTIVKVFKQPSKPEIVSKALFLETEQLKKLGDCISEDSYPDGNITWYRNGKVLHPLEGAVVIIFKKEMDPVTQLYTMTSTLEYKTTKADIQMPFTCSVTYYGPSGQKTIHSEQAVFDIYYPTEQVTIQVLPPKNAIKEGDNITLKCLGNGNPPPEEFLFYLPGQPEGIRSSNTYTLTDVRRNATGDYKCSLIDKKSMIASTAITVHYLDLS
notes: signal peptide in the construct; human CD166 (ALCAM) residues 1-335 with the native leader; Deglycosylated with EndoHf only for crystallization; also called ALCAM; source: purified (NiNTA, Superdex200)
stoichiometry N [2]: 2

fold weaker affinity than for CD6 S351 [14]: 10 fold
B2: human CD166 IgSF domains 1-3 (CD166 VVC), His-tagged (residues 1-335) (domain or fragment, UniProt Q13740 28-335, looked up)
chain: WYTVNSAYGDTIIIPCRLDVPQNLMFGKWKYEKPDGSPVFIAFRSSTKKSVQYDDVPEYKDRLNLSENYTLSISNARISDEKRFVCMLVTEDNVFEAPTIVKVFKQPSKPEIVSKALFLETEQLKKLGDCISEDSYPDGNITWYRNGKVLHPLEGAVVIIFKKEMDPVTQLYTMTSTLEYKTTKADIQMPFTCSVTYYGPSGQKTIHSEQAVFDIYYPTEQVTIQVLPPKNAIKEGDNITLKCLGNGNPPPEEFLFYLPGQPEGIRSSNTYTLTDVRRNATGDYKCSLIDKKSMIASTAITVHYLDLS
modifications: N-linked glycans (endoglycosidase H sensitive; heterogeneity in mass caused by glycosylation)
notes: signal peptide in the construct; In the crystal (PDB 5a2f) only domains 1 and 2 were resolved; the third domain was probably cleaved off before crystal growth; protein deglycosylated with EndoHf for crystallization; also called ALCAM; source: purified (NiNTA, Superdex200)
stoichiometry N [15]: 2

B3: human CD6 SRCR domains 1-3, His-tagged (residues 1-364) (domain or fragment, UniProt P30203 18-364, looked up)
chain: HPSPAPPDQLNTSSAESELWEPGERLPVRLTNGSSSCSGTVEVRLEASWEPACGALWDSRAAEAVCRALGCGGAEAASQLAPPTPELPPPPAAGNTSVAANATLAGAPALLCSGAEWRLCEVVEHACRSDGRRARVTCAENRALRLVDGGGACAGRVEMLEHGEWGSVCDDTWDLEDAHVVCRQLGCGWAVQALPGLHFTPGRGPIHRDQVNCSGAEAYLWDCPGLPGQHYCGHKEDAGAVCSEHQSWRLTGGADRCEGQVEVHFRGVWNTVCDSEWYPSEAKVLCQSLGCGTAVERPKGLPHSLSGRMYYSCNGEELTLSNCSWRFNNSNLCSQSLAARVLCSASR
modifications: N-linked glycans (endoglycosidase H sensitive; heterogeneity in mass caused by glycosylation; GlcNAc seen at N229 in the crystal)
notes: signal peptide in the construct; Deglycosylated with EndoHf only for crystallization; source: purified (NiNTA, Superdex200)
stoichiometry N [15]: 2
